Key:
[1] = system: Bifidobacterium infantis M-63; experiment: Growth promoting effect on Bifidobacterium infantis M-63 (turbidity at 600 nm); type: cell-based; details: 2′-FL 0.000 mass %, 37° C., 24 hours, n = 12
Protocol: (§1) 150 μL of a pre-culture solution of Bifidobacterium breve M-16V was added to 3 mL of MRS medium prepared in (1) (i), and was anaerobically cultured at 37° C. for 16 hours. After culturing, the cells were separated from the culture solution by centrifuging at 1500×g for 5 minutes. The culture solution was removed, and the cells were resuspended in 3 mL of glucose-free MRS medium prepared in (1) (ii).
(§2) The pre-culture solution prepared in (2) was added to the glucose-free MRS medium prepared in (1) (ii) to have a final concentration of 1 v/v %. Further, the 2′-fucosyllactose (2′-FL) solution and the lactoferrin solution prepared in (1) (iii) were respectively added to have the final concentrations shown in Table 2, and were dispensed into a 96-well plate at 200 μL/well.
(§3) Then, the cells were anaerobically cultured at 37° C. for 24 hours. After culturing, turbidity was measured at a wavelength of 600 nm using a microplate reader (Corona Electric) to evaluate the growth of bifidobacteria.
The same operation as in Example 1 was carried out except that the bifidobacteria were replaced with Bifidobacterium infantis M-63, and the growth was evaluated.

[2] = system: Bifidobacterium breve M-16V; experiment: Growth promoting effect on Bifidobacterium breve M-16V (turbidity at 600 nm after anaerobic culture); type: cell-based; details: 2′-FL 0.000 mass %, glucose-free MRS, 37° C., 24 hours, n = 4
Protocol: (§4) DifcoMRS (BD) was dissolved in purified water as described in a package insert and sterilized at 115° C. for 15 minutes. L-Cysteine hydrochloride (Wako) was dissolved in purified water, filtered and sterilized, and was aseptically added to MRS medium cooled to room temperature after sterilization to have a final concentration of 0.05% by mass.
as §4, with “A reagent” for “DifcoMRS (BD)”, “with the composition shown” for “as described”, “Table 1” for “a package insert”
Human milk oligosaccharide (2′-fucosyllactose (2′-FL) (Carbosynth)) and lactoferrin (produced by Morinaga Milk Industry Co., Ltd., iron content 15.8 mg/100 g) were dissolved in purified water, respectively. They were filtered and sterilized after dissolution.
as §1, §2, §3

B1: lactoferrin (protein, UniProt P24627 20-708, looked up)
Lactotransferrin: APRKNVRWCTISQPEWFKCRRWQWRMKKLGAPSITCVRRAFALECIRAIAEKKADAVTLDGGMVFEAGRDPYKLRPVAAEIYGTKESPQTHYYAVAVVKKGSNFQLDQLQGRKSCHTGLGRSAGWIIPMGILRPYLSWTESLEPLQGAVAKFFSASCVPCIDRQAYPNLCQLCKGEGENQCACSSREPYFGYSGAFKCLQDGAGDVAFVKETTVFENLPEKADRDQYELLCLNNSRAPVDAFKECHLAQVPSHAVVARSVDGKEDLIWKLLSKAQEKFGKNKSRSFQLFGSPPGQRDLLFKDSALGFLRIPSKVDSALYLGSRYLTTLKNLRETAEEVKARYTRVVWCAVGPEEQKKCQQWSQQSGQNVTCATASTTDDCIVLVLKGEADALNLDGGYIYTAGKCGLVPVLAENRKSSKHSSLDCVLRPTEGYLAVAVVKKANEGLTWNSLKDKKSCHTAVDRTAGWNIPMGLIVNQTGSCAFDEFFSQSCAPGADPKSRLCALCAGDDQGLDKCVPNSKEKYYGYTGAFRCLAEDVGDVAFVKNDTVWENTNGESTADWAKNLNREDFRLLCLDGTRKPVTEAQSCHLAVAPNHAVVSRSDRAAHVKQVLLHQQALFGKNGKNCPDKFCLFKSETKNLLFNDNTECLAKLGGRPTYEEYLGTEYVTAIANLKKCSTSPLLEACAFLTR
notes: lactoferrin produced by Morinaga Milk Industry Co., Ltd., iron content 15.8 mg/100 g
- OD600 ([1]; lactoferrin 0.500 mg/mL): 0.093
- OD600 ([1]; lactoferrin 1.000 mg/mL): 0.101
- OD600 ([2]; lactoferrin 0.031 mg/mL): 0.072
- OD600 ([2]; lactoferrin 0.063 mg/mL): 0.074
- OD600 ([2]; lactoferrin 0.125 mg/mL): 0.073
- OD600 ([2]; lactoferrin 0.250 mg/mL): 0.074
- OD600 ([2]; lactoferrin 0.500 mg/mL): 0.075
- OD600 ([2]; lactoferrin 1.000 mg/mL): 0.078

— patent publication US20220241354A1, “COMPOSITION” (MORINAGA MILK INDUSTRY CO., LTD., priority 2019, published 2022)
